Measured values as given in the supplement of paper PMC10567573.

B1: DYRK1B (parent)
chain: YQGPGTRRLQEVLGVQTGGPGGRR

Variants of: B1
Assay: protein stability index of a GFP-peptide fusion (GPS, HEK-293T) (PSI 1-6); higher = more stable
Details: c terminus: a fixed tail appended
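Note: lentivirally expressed fusions sorted by FACS into six bins by GFP to DsRed ratio, PSI derived from sequencing read proportions per bin multiplied by bin number.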

Row | Variant | protein stability index
1 | YQGPGTRRLQEVLGVQTYGPGGRR | 2.94
2 | YQGPGTRRLQEVLGVQTIGPGGRR | 2.4
3 | YQGPGTRRLQEVLGVQTHGPGGRR | 3.19
4 | YQGPHTRRLQEVLGVQTGGPGGRR | 3.17
5 | YQGPRTRRLQEVLGVQTGGPGGRR | 2.58
6 | YQGPWTRRLQEVLGVQTGGPGGRR | 1.08
7 | YQGPYTRRLQEVLGVQTGGPGGRR | 2.34
8 | YCGPGTRRLQEVLGVQTGGPGGRR | 2.66
9 | YFGPGTRRLQEVLGVQTGGPGGRR | 3.22
10 | YQGPGTRRLQIVLGVQTGGPGGRR | 1.97
11 | YQGPGTRRLQQVLGVQTGGPGGRR | 2.68
12 | YQGPGTRRLQEVLLVQTGGPGGRR | 2.75
13 | YQGPGTRRLQEVLKVQTGGPGGRR | 2.9
14 | YQGPGTRRLQEVLPVQTGGPGGRR | 4.17
15 | YQGPGTRRLQEVLNVQTGGPGGRR | 4.25
16 | YQGPGTRRLQEVLVVQTGGPGGRR | 3.14
17 | YQGPGTRQLQEVLGVQTGGPGGRR | 3.67
18 | YQGPGTRNLQEVLGVQTGGPGGRR | 3.45
19 | YQGPGTRILQEVLGVQTGGPGGRR | 2.75
20 | YQGPGTRPLQEVLGVQTGGPGGRR | 3.49
21 | YQGPGTRDLQEVLGVQTGGPGGRR | 3.55
22 | YQGPGTRELQEVLGVQTGGPGGRR | 4.51
23 | YQGPGTRRLQEVLGNQTGGPGGRR | 3.81
24 | YQGPGTRRLQEVLGTQTGGPGGRR | 2.96

Row | Variant | protein stability index
25 | YQGPGTRRLQEVLGIQTGGPGGRR | 2.07
26 | YQGPGTRRLQEVLGGQTGGPGGRR | 3.63
27 | YQGPGTRRLQEVLGLQTGGPGGRR | 2.68
28 | YQGPGTRRLQEVLGWQTGGPGGRR | 3.1
29 | YQGPGTRRLQEVLGFQTGGPGGRR | 3.62
30 | YQGPGTRRLQEVLGVQTGGPGGCR | 2.87
31 | YQGPGTRRLQEVLGVQTGGPGGKR | 2.55
32 | YQGPGLRRLQEVLGVQTGGPGGRR | 2.37
33 | YQGPGPRRLQEVLGVQTGGPGGRR | 3.04
34 | YQGPGYRRLQEVLGVQTGGPGGRR | 1.77
35 | YQGPGNRRLQEVLGVQTGGPGGRR | 2.68
36 | YQGPGTRRLQEVLGVWTGGPGGRR | 2.26
37 | YQGPGTRRLQEVLGVMTGGPGGRR | 2.98
38 | YQGPGTRRLQEVLGVVTGGPGGRR | 2.61
39 | YQGPGTRRLQEVLGVHTGGPGGRR | 3.75
40 | YQGPGTRRLQEVLGVETGGPGGRR | 3.39
41 | FQGPGTRRLQEVLGVQTGGPGGRR | 3.84
42 | GQGPGTRRLQEVLGVQTGGPGGRR | 4.41
43 | DQGPGTRRLQEVLGVQTGGPGGRR | 4.91
44 | HQGPGTRRLQEVLGVQTGGPGGRR | 4.78
45 | TQGPGTRRLQEVLGVQTGGPGGRR | 4.72
46 | VQGPGTRRLQEVLGVQTGGPGGRR | 4.28
47 | YQQPGTRRLQEVLGVQTGGPGGRR | 3.11
48 | YQDPGTRRLQEVLGVQTGGPGGRR | 3.83

Row | Variant | protein stability index
49 | YQSPGTRRLQEVLGVQTGGPGGRR | 3.44
50 | YQHPGTRRLQEVLGVQTGGPGGRR | 3.81
51 | YQMPGTRRLQEVLGVQTGGPGGRR | 3.03
52 | YQGPGTRRRQEVLGVQTGGPGGRR | 3.9
53 | YQGPGTRREQEVLGVQTGGPGGRR | 3.79
54 | YQGPGTRRAQEVLGVQTGGPGGRR | 4.03
55 | YQGPGTRRLQEVLGVQMGGPGGRR | 3.24
56 | YQGPGTRRLQEVLGVQKGGPGGRR | 3.24
57 | YQGPGTRRLQEVLGVQAGGPGGRR | 3.27
58 | YQGPGTRRLQEVLGVQVGGPGGRR | 3.62
59 | YQGPGTRRLDEVLGVQTGGPGGRR | 3.3
60 | YQGPGTRRLNEVLGVQTGGPGGRR | 3.85
61 | YQGPGTRRLCEVLGVQTGGPGGRR | 2.72
62 | YQGPGTRRLQEVLGVQTGGCGGRR | 3.49
63 | YQGPGTRRLQEVLGVQTGGFGGRR | 2.32
64 | YQGPGTRRLQEVLGVQTGGHGGRR | 2.81
65 | YQGPGTRRLQEVLGVQTGGSGGRR | 3.28
66 | YQGPGTRRLQEVFGVQTGGPGGRR | 2.9
67 | YQGPGTRRLQEVMGVQTGGPGGRR | 3.31
68 | YQGPGTRRLQEGLGVQTGGPGGRR | 3.32
69 | YQGPGTRRLQEVLGVQTGYPGGRR | 2.9
70 | YQGPGTRRLQEVLGVQTGAPGGRR | 3.34
71 | YQGPGTRRLQEVLGVQTGVPGGRR | 3.19
72 | YQGPGTRRLQEVLGVQTGDPGGRR | 3.58

Row | Variant | protein stability index
73 | YQGPGTRRLQEVLGVQTGGPGGRK | 3.12
74 | YQGPGTRRLQEVLGVQTGGPGGRQ | 3.06
75 | YQGPGTRRLQEVLGVQTGGPGGRF | 2.49
76 | YQGPGTRRLQEVLGVQTGGPGGRA | 3.23
77 | YQGPGTQRLQEVLGVQTGGPGGRR | 3.76
78 | YQGPGTFRLQEVLGVQTGGPGGRR | 2.04
79 | YQGPGTWRLQEVLGVQTGGPGGRR | 1.77
80 | YQGPGTDRLQEVLGVQTGGPGGRR | 3.7
81 | YQGPGTYRLQEVLGVQTGGPGGRR | 3.1
82 | YQGPGTCRLQEVLGVQTGGPGGRR | 1.51
83 | YQGPGTKRLQEVLGVQTGGPGGRR | 3.06
84 | YQGPGTPRLQEVLGVQTGGPGGRR | 3.5
85 | YQGPGTRRLQEVLGVQTGGPGDRR | 3.39
86 | YQGPGTRRLQEVLGVQTGGPGERR | 3.4
87 | YQGPGTRRLQEVLGVQTGGPGVRR | 2.95
88 | YQGAGTRRLQEVLGVQTGGPGGRR | 3.01
89 | YQGHGTRRLQEVLGVQTGGPGGRR | 2.79
90 | YQGTGTRRLQEVLGVQTGGPGGRR | 2.79
91 | YQGQGTRRLQEVLGVQTGGPGGRR | 2.88
92 | YQGPGTRRLQEVLGVQTGGPKGRR | 2.74
93 | YQGPGTRRLQEVLGVQTGGPHGRR | 3.33
94 | YQGPGTRRLQEVLGVQTGGPAGRR | 3.25
